Measurements published in paper PMC5199209, “A Cascade of Thermophilic Enzymes As an Approach to the Synthesis of Modified Nucleotides” (Acta Naturae, 2016).

B1: TspRK (ribokinase from Thermus sp. 2.9) (Thermus sp. 2.9) (protein)
chain: MILVVGSLNMDLVLRVKRLPRPGETVLGEDYQTHPGGKGANQAVAIARLGGKVRMLGRVGEDPFGQALKSGLAQEGVDVAWVLETPGPSGTAFILVDPEGQNQIAVAPGANARLVPEDLPATAFQGVGVVLLQLEIPLETVVRAAALGRKAGARILLNAAPAHALPSEILQSVDLLLVNEVEAAQLTEASPPRTPEEALALARQLRGRAPQAQVVLTLGAQGAVWSGTEESHFPAFPVRAVDTTAAGDAFAGALALGLAEGQNMRAALRFANAAGALATTRPGAQPSLPFRDEVEALLFGR
notes: full-length, six-histidine tag (pET-23d+, NcoI/XhoI), codon-optimized synthetic gene; E. coli host

How the values were obtained:
[1] = biological target: T1, TspRK (ribokinase from Thermus sp. 2.9) (Thermus sp. 2.9, UniProt A0A0B0SD75); test: HPLC of nucleotides (ATP consumption), nonlinear regression with substrate-inhibition equation; type: biochemical; settings: 1 mM ATP, 5 mM MgCl2, 50 mM KCl, 10 mM KH2PO4, pH 8.0, 75 °C; substrate inhibition by binding of a second molecule; second site
T1 construct: gene rbsK; full-length, six-histidine tag (pET-23d+, NcoI/XhoI), codon-optimized synthetic gene; E. coli host
T1 sequence (A0A0B0SD75 1-301): B1 chain
From the text: HPLC of nucleotides (ATP consumption), nonlinear regression with substrate-inhibition equation on TspRK (ribokinase from Thermus sp. 2.9)

[2] = substrate: Nc1ncnc2c1ncn2[C@@H]1O[C@H](COP(=O)(O)OP(=O)(O)OP(=O)(O)O)[C@@H](O)[C@H]1O; test: HPLC of nucleotides (ATP consumption), nonlinear regression, Michaelis-Menten; type: biochemical, Thermus sp. 2.9; settings: 1 mM D-ribose, 5 mM MgCl2, 50 mM KCl, 10 mM KH2PO4, pH 8.0, 75 °C
From the text: HPLC of nucleotides (ATP consumption), nonlinear regression, Michaelis-Menten on TspRK (ribokinase from Thermus sp. 2.9)

Molecule | Ki, μM [1] | Km [2] [µM] | Vmax [2] [µM/min/mg] | kcat [2] [s⁻¹] | kcat/Km [2] [M⁻¹ s⁻¹]
OC1OC[C@@H](O)[C@@H](O)[C@H]1O (stereo partly drawn) [D-ribose] | 1,700 ± 400 μM |  |  |  | 
B1 |  | 75 ± 11 | 13 | 6.8 ± 0.7 | 91000
